The record followed here is patent US20140356376.

Data set [1] addresses thio-S4497 HC v1-MP-LAFG-PABC-(piperazinoBOR) AAC-193.
Data set [2] has as its target thioFAB 4497 MP-LAFAA-QSY7.
In data set [3] the target is thioFAB 4497 MP-LAFGA-QSY7.

B1: staphopain A (protein)
chain: YNEQYVNKLENFKIRETQGNNGWCAGYTMSALLNATYNTNKYHAEAVMRFLHPNLQGQQFQFTGLTPREMIYFEQTQGRSPQLLNRMTTYNEVDNLTKNNKGIAILGSRVESRNGMHAGHAMAVVGNAKLNNGQEVIIIWNPWDNGFMTQDAKNNVIPVSNGDHYQWYSSIYGY
Consider B1, for which the Percent cleavage pH 5 in data set [1] was found to be 100%. For the same protein, the values for the Percent cleavage pH 7.2 in data set [1], in data set [2] and in data set [3] were 46%, 23% and 38%, respectively.
